He/Con_1a data for ten molecules are collected here from patent US20150344570A1 (published 2015).

B1: GpH7-A5/GpH7-B3 variant T335_19Q/GpL16-k0 (heterodimerized antibody, He Ab) (antibody, human IgG1, kappa)
heavy 1: not shown
heavy 2: not shown
light: DIVMTQSPLSLPVTPGEPASISCQASESLVHSNRNTYLHWYLQKPGQSPQLLIYKVSNRFSGVPDRFSGSGSGTDFTLKISRVEAEDVGVYYCSQNTHVPPTFGQGTKVEIERTVAAPSVFIFPPSDEQLKSGTASVVCLLNNFYPREAKVQWKVDNALQSGNSQESVTEQDSKDSTYSLSSTLTLSKADYEKHKVYACEVTHQGLSSPVTKSFNRGEC
notes: Anti-glypican-3 IgG1; alteration only in the GpH7-B3 (K439E) chain; other H chain is GpH7-A5 (D356K/H435R)
B2: GpH7-A5/GpH7-B3 variant Y296_20W/GpL16-k0 (heterodimerized antibody, He Ab) (antibody, human IgG1, kappa)
heavy 1: not shown
heavy 2: not shown
light: DIVMTQSPLSLPVTPGEPASISCQASESLVHSNRNTYLHWYLQKPGQSPQLLIYKVSNRFSGVPDRFSGSGSGTDFTLKISRVEAEDVGVYYCSQNTHVPPTFGQGTKVEIERTVAAPSVFIFPPSDEQLKSGTASVVCLLNNFYPREAKVQWKVDNALQSGNSQESVTEQDSKDSTYSLSSTLTLSKADYEKHKVYACEVTHQGLSSPVTKSFNRGEC
notes: as for B1
B3: GpH7-A5/GpH7-B3 variant Y300_08L/GpL16-k0 (heterodimerized antibody, He Ab) (antibody, human IgG1, kappa)
heavy 1: not shown
heavy 2: not shown
light: DIVMTQSPLSLPVTPGEPASISCQASESLVHSNRNTYLHWYLQKPGQSPQLLIYKVSNRFSGVPDRFSGSGSGTDFTLKISRVEAEDVGVYYCSQNTHVPPTFGQGTKVEIERTVAAPSVFIFPPSDEQLKSGTASVVCLLNNFYPREAKVQWKVDNALQSGNSQESVTEQDSKDSTYSLSSTLTLSKADYEKHKVYACEVTHQGLSSPVTKSFNRGEC
notes: as for B1
B4: GpH7-A5/GpH7-B3 variant Y296_06M/GpL16-k0 (heterodimerized antibody, He Ab) (antibody, human IgG1, kappa)
heavy 1: not shown
heavy 2: not shown
light: DIVMTQSPLSLPVTPGEPASISCQASESLVHSNRNTYLHWYLQKPGQSPQLLIYKVSNRFSGVPDRFSGSGSGTDFTLKISRVEAEDVGVYYCSQNTHVPPTFGQGTKVEIERTVAAPSVFIFPPSDEQLKSGTASVVCLLNNFYPREAKVQWKVDNALQSGNSQESVTEQDSKDSTYSLSSTLTLSKADYEKHKVYACEVTHQGLSSPVTKSFNRGEC
notes: as for B1
B5: GpH7-A5/GpH7-B3 variant Y296_10E/GpL16-k0 (heterodimerized antibody, He Ab) (antibody, human IgG1, kappa)
heavy 1: not shown
heavy 2: not shown
light: DIVMTQSPLSLPVTPGEPASISCQASESLVHSNRNTYLHWYLQKPGQSPQLLIYKVSNRFSGVPDRFSGSGSGTDFTLKISRVEAEDVGVYYCSQNTHVPPTFGQGTKVEIERTVAAPSVFIFPPSDEQLKSGTASVVCLLNNFYPREAKVQWKVDNALQSGNSQESVTEQDSKDSTYSLSSTLTLSKADYEKHKVYACEVTHQGLSSPVTKSFNRGEC
notes: as for B1
B6: GpH7-A5/GpH7-B3 variant Y300_06M/GpL16-k0 (heterodimerized antibody, He Ab) (antibody, human IgG1, kappa)
heavy 1: not shown
heavy 2: not shown
light: DIVMTQSPLSLPVTPGEPASISCQASESLVHSNRNTYLHWYLQKPGQSPQLLIYKVSNRFSGVPDRFSGSGSGTDFTLKISRVEAEDVGVYYCSQNTHVPPTFGQGTKVEIERTVAAPSVFIFPPSDEQLKSGTASVVCLLNNFYPREAKVQWKVDNALQSGNSQESVTEQDSKDSTYSLSSTLTLSKADYEKHKVYACEVTHQGLSSPVTKSFNRGEC
notes: as for B1
B7: GpH7-A5/GpH7-B3 variant Y296_19Q/GpL16-k0 (heterodimerized antibody, He Ab) (antibody, human IgG1, kappa)
heavy 1: not shown
heavy 2: not shown
light: DIVMTQSPLSLPVTPGEPASISCQASESLVHSNRNTYLHWYLQKPGQSPQLLIYKVSNRFSGVPDRFSGSGSGTDFTLKISRVEAEDVGVYYCSQNTHVPPTFGQGTKVEIERTVAAPSVFIFPPSDEQLKSGTASVVCLLNNFYPREAKVQWKVDNALQSGNSQESVTEQDSKDSTYSLSSTLTLSKADYEKHKVYACEVTHQGLSSPVTKSFNRGEC
notes: as for B1
B8: GpH7-A5/GpH7-B3 variant Y296_14T/GpL16-k0 (heterodimerized antibody, He Ab) (antibody, human IgG1, kappa)
heavy 1: not shown
heavy 2: not shown
light: DIVMTQSPLSLPVTPGEPASISCQASESLVHSNRNTYLHWYLQKPGQSPQLLIYKVSNRFSGVPDRFSGSGSGTDFTLKISRVEAEDVGVYYCSQNTHVPPTFGQGTKVEIERTVAAPSVFIFPPSDEQLKSGTASVVCLLNNFYPREAKVQWKVDNALQSGNSQESVTEQDSKDSTYSLSSTLTLSKADYEKHKVYACEVTHQGLSSPVTKSFNRGEC
notes: as for B1
B9: GpH7-A5/GpH7-B3 variant Y296_13S/GpL16-k0 (heterodimerized antibody, He Ab) (antibody, human IgG1, kappa)
heavy 1: not shown
heavy 2: not shown
light: DIVMTQSPLSLPVTPGEPASISCQASESLVHSNRNTYLHWYLQKPGQSPQLLIYKVSNRFSGVPDRFSGSGSGTDFTLKISRVEAEDVGVYYCSQNTHVPPTFGQGTKVEIERTVAAPSVFIFPPSDEQLKSGTASVVCLLNNFYPREAKVQWKVDNALQSGNSQESVTEQDSKDSTYSLSSTLTLSKADYEKHKVYACEVTHQGLSSPVTKSFNRGEC
notes: as for B1
B10: GpH7-A5/GpH7-B3 variant Y296_12R/GpL16-k0 (heterodimerized antibody, He Ab) (antibody, human IgG1, kappa)
heavy 1: not shown
heavy 2: not shown
light: DIVMTQSPLSLPVTPGEPASISCQASESLVHSNRNTYLHWYLQKPGQSPQLLIYKVSNRFSGVPDRFSGSGSGTDFTLKISRVEAEDVGVYYCSQNTHVPPTFGQGTKVEIERTVAAPSVFIFPPSDEQLKSGTASVVCLLNNFYPREAKVQWKVDNALQSGNSQESVTEQDSKDSTYSLSSTLTLSKADYEKHKVYACEVTHQGLSSPVTKSFNRGEC
notes: as for B1

The target in this assay is T1, FcγRIa (human, UniProt P12314 16-292).
T1 construct: extracellular domain; Soluble extracellular domain with C-terminal His tag, expressed in FreeStyle293 cells; analyte in Biacore; also called FcgRI; CD64; not shown: His tag attached to the C terminus
T1 sequence (P12314 16-292): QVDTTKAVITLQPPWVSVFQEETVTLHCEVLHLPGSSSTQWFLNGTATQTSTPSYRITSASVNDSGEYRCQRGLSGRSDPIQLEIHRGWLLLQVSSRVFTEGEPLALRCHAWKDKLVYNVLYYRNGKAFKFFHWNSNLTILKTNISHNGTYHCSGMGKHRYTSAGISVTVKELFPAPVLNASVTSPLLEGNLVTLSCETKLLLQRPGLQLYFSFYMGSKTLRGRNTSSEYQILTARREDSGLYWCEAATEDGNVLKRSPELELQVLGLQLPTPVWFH
Description: SPR (Biacore), antibody captured on antigen-peptide chip, FcγRIa as analyte; binding activity relative to control GpH7-A5/GpH7-B3/GpL16-k0 (HeCon Ab) x100. How it is done:
Analysis of interaction between objective antibody and the FcγR was carried out using Biacore T100 (GE Healthcare). HBS-EP+ (GE Healthcare) was used as the running buffer, and the measurement temperature was set to 25° C. Chips produced by immobilizing the antigen peptide by the amine coupling method to a Series S Sencor Chip CM5 (GE Healthcare), or alternatively, chips produced by allowing preliminarily biotinylated antigen peptides to interact with and immobilize onto a Series S Sensor Chip SA (certified) (GE Healthcare) were used. Antibodies of interest were captured onto an antigen peptide-immobilized chip, and allowed to interact to each FcγR diluted with running buffer. To regenerate and repeatedly use the chip, the antibodies captured on the chip were washed off by reacting 10 mM glycine-HCl, pH 1.5.
(In general: In SPR one partner is held on a chip, and binding of the other changes the refractive index at the surface.)
With B1, the He/Con_1a was 105 % of control (=100).

In the case of B2, the He/Con_1a was 111 % of control (=100). For the molecule B3, the He/Con_1a was 113 % of control (=100). Then B4, with 104 % of control (=100); and B5, with 106 % of control (=100); and B6, with 112 % of control (=100). Then B7, with 112 % of control (=100).

Take B8: the He/Con_1a was 105 % of control (=100).

B9: the He/Con_1a is 105 % of control (=100).

Take B10: the He/Con_1a is 106 % of control (=100).
